Key:
[1] = Assay of GDC-2 acetolactate synthase activity (acetoin colorimetric detection); format: biochemical; conditions: 50 mM pyruvate, 1 mM TPP, 10 mM MgCl2, 0.01 mM FAD, pH 7.0, 2 hours at 37° C.
Experimental: Acetolactate synthases are decarboxylating enzymes that condense two pyruvate molecules to form acetolactate with the release of a CO2 moiety from one of the pyruvate substrates. In the detection of the enzymatic reaction described by Pang and Duggleby (Pang and Duggleby (1999) Biochemistry 18:5222-5231), the product acetolactate is converted to acetoin by incubation with 1% H2SO4 for 15 minutes at 60° C. followed by neutralization with KOH. The acetoin is then detected as described by Westerfeld (Westerfeld (1945) J. Biol. Chem.161:495-502), using 0.15% creatine and 1.5% alpha-naphthol (dissolved in 2.5 N NaOH). The red colored reaction product is quantified by absorbance at 525 nm.
Samples containing either 5 μg or 10 μg of GDC-2 were incubated in 50 mM pyruvate, 1 mM […] pyrophosphate, 10 mM MgCl2, 0.01 mM Flavin adenine dinucleotide (FAD), 100 mM potassium phosphate buffer pH 7.0 (total reaction volume of 50 μl) for 2 hours at 37° C. The reaction was stopped by the addition of 1 μl of 50% sulfuric acid (H2SO4) and incubated at 60° C. for 15 minutes. The reaction was neutralized by the addition of 30 μl of 1 N KOH followed by the addition of 10 μl of 1.5% creatine and 10 μl of 15% alpha-napthol dissolved in 2.5 N NaOH. The red colored reaction product was quantified by absorbance at 525 nm.

ΔaroA E. coli = experiment: Genetic complementation of aroA mutation in E. coli; format: cell-based; conditions: ΔaroA E. coli transformed with pAX473; M63 alone
Excerpt: The E. coli aroA gene codes for EPSP synthase, the target enzyme for glyphosate. […] However, genes encoding EPSPS activity can restore the ability to grow […] upon aroA mutant E. coli strains. Thus, a test for genetic complementation of an aroA mutant is a highly sensitive method to test if a gene is capable of functioning as an EPSPS in E. coli. Such tests for gene function by genetic complementation are known in the art.
A deletion of the aroA gene was created in E. coli XL-1 MRF′ (Stratagene) by PCR/recombination methods known in the art and outlined by Datsenko and Wanner, (2000) Proc. Natl. Acad. Sci. USA 97:6640-6645. This system is based on the Red system that allows for chromosomal disruptions of targeted sequences. A large portion (1067 nt of the 1283 nt) of the aroA coding region was disrupted by the engineered deletion.
The ability of an EPSPS to complement the mutant phenotype of ΔaroA was confirmed. Clone pAX482, an E. coli expression vector containing the wild-type E. coli aroA gene, was transformed into ΔaroA, and transformed cells were selected. These cells (containing a functional aroA gene residing on a plasmid) were then plated on LB media, M63, and M63 with amino acid supplements. […]

B1: GDC-2: glyphosate resistance-conferring decarboxylase protein (SEQ ID NO:3), acetolactate synthase homologue from strain ATX6837; purified as 6× His-tagged protein (protein)
chain: MLRSRQASKALRALGQARHFTSTTQPAAVQAPRKVASGQRNQATAATATSAAPNVRATPSPAFNAEEQQQQKHSHVQPLVNPQKSDMDESFIGKTGGEIFHEMMLRQGVKHIFGYPGGAILPVFDAIYNSKHFDFILPRHEQGAGHMAEGYARASGKPGVVLVTSGPGATNVVTPMQDALSDGTPLVVFCGQVPTSAIGSDAFQEADVVGISRACTKWNVMVKNVAELPRRINEAFEIATSGRPGPVLVDLPKDVTAGILRRAIPTETALPALPSAASRAAMESSRKHLEHTIKRVADLVNKAKQPVIYAGQGIIQSEGGPELLKELADKASIPVTTTLQGLGGFDELDEKSLHMLGMHGSAYANMAMQEADLIIALGARFDDRVTLNVAKFAPGARAAAAEKRGGIVHFEVMPKNINKVVQATEAVEGNVGSNLKLLLPEVQAKTMDDRKEWFGKINEWKKKWPLSHYERAERHGLIKPQTLIEELSKLTADRKDKTYIATGVGQHQMWTAQHFRWRHPRSMITSGGLGTMGFGLPAAIGAKVAQPDALVFDIDGDASFGMTLTELATAAQFNIGVKVIVLNNEEQGMVTQWQNLFYEDRYAHTHQVNPDFMKLAESMRVQGRRCVDPEDVVDSLKWLINTDGPALLEVVTDKKVPVLPMVPAGSALHEFLVFDGEKDKKRRELMRERTSGLHG
modifications: 6xHis tag; Fungal isolate from soil sample
notes: purified as 6× His-tagged protein
- Absorbance 525 nm (acetolactate synthase activity) ([1]; 5 μg GDC-2): 1.99
- Absorbance 525 nm (acetolactate synthase activity) ([1]; 10 μg GDC-2): 3.13
- Complementation of the aroA mutation (growth on M63 minimal media lacking aromatic amino acids) (ΔaroA E. coli): not capable of complementing the aroA mutation
